{
  "source": "patent US12552837B2",
  "about": "“Bicyclic peptide ligands with detectable moieties and uses thereof” (BicycleRD Limited, priority 2017, dated 2026)",
  "key": {"[1]": {"experiment": "Organ distribution of 177Lu-labelled peptides in HT1080 xenograft mice", "assay_type": "in vivo, BALB/c nu/nu mice", "details": "male, BALB/c nu/nu, mouse, HT1080 tumor, iv, total radioactivity; for tissue uptake at 1 h: 1 h p.i.", "experimental": "(§1) General procedure for radiolabelling with Lu-177.\n(§2) • 50 μL 0.25 M Na-Acetate buffer pH 5.2+0.1% Tween 20; • 10 μL [Lu-177]LuCl3 in 0.05 M HCl; and • 2 μL of the diluted peptide (2 nmols). […]\n(§3) Organ distribution studies, general method: For organ distribution, the respective dose is prepared by dilution of the labeling reaction mixture in injection buffer (0.25 M Na-Acetate pH 7+0.05% Tween20). The ^177Lu-radiolabeled peptide was injected via the tail vein of the nu/nu mice (50 kBq per mouse), transplanted with the respective cell line. At indicated time points after injection the animals were sacrificed. Blood, heart, lung, spleen, liver, kidney, muscle, brain, femur, and the tumor were dissected, blotted dry, and weighed. The radioactivity was measured with a γ-counter (CobraII; Canberra Packard) along with a sample of the injection solution to calculate the percentage injected dose per gram of tissue (% ID/g).\n(§4) The γ- and β-emitter ^177LuCl3 (NEZ307D, Perkin Elmer, in 0.04 M HCl), with a t1/2 of 6.7 days was used for both in vivo biodistribution and internalization studies. Labeling reactions were performed by adding 10 μL ^177LuCl3 (˜10 MBq) in 50 mM HCl, 2 μL of the diluted peptide (1 mM solution in 50 mM HEPES buffer pH 7+0.1% Tween 20 diluted from a 10 mM DMSO stock) to 50 μL 50 mM HEPES buffer pH 7 supplemented with 0.1% Tween 20. The reaction mixture was incubated at 98° C. for 10 minutes. The radiochemical yield (RCY) was determined using high performance liquid chromatography (HPLC) system equipped with a Latek P402 (Latek, Eppelheim, Germany), a HITACHI variable UV detector (absorbance was measured at 214 and 254 nm) and a gamma detector (Bioscan, WA, USA), using a Chromolith RP-18 column (100×4.6 mm; Merck). The analytical HPLC run was performed at 4 mL/min, using a linear A (0.1% trifluoroacetic acid (TFA) in water) to B (0.1% TFA in acetonitrile) gradient (0% B to 100% B in 6 min). Thin-layer chromatography was performed in parallel to confirm the results of the radio-HPLC. The RCY was generally >95%, and thus, the output of labelling reactions was directly diluted with the appropriate buffer and further unlabeled peptide if required, to use in subsequent experiments.\n(§5) 5×10^6 cells of HT1080 were subcutaneously inoculated into the right trunk of male 6-week-old BALB/c nu/nu mice (Charles River Laboratories). The tumors were grown for approximately 1 week, to a maximum size of ˜200 mm^3. Respective doses were prepared by mixing a fixed quantity of 5 pmoles ^177Lu labelled peptides (at approx. 50 kBq) with different quantities of non-labelled peptide (derived from 1 mM stock solution in 0.25 M sodium acetate pH 7+0.05% Tween20) in 100 μL injection buffer (0.25 M sodium acetate pH 7+0.05% Tween20). 3 animals were used per dose and timepoint. Radiolabelled peptide solutions were injected via the tail vein, followed by sacrifice at various time points. Organs of interest (blood, heart, lung, spleen, liver, kidney, muscle, small intestine, brain, HT1080 tumor) were dissected, blotted dry, and weighed. The radioactivity was measured using a gamma counter and calculated as % ID/g."}, "HT1080 tumor": {"tested_on": "HT1080 tumor", "experiment": "Organ distribution of 177Lu-labelled peptides in HT1080 xenograft mice", "assay_type": "in vivo, BALB/c nu/nu mice", "details": "1 h post injection", "experimental": "as §1, §2, §3, §4, §5"}},
  "note": "*1 amine or outer side, *2 acyl side, *3 side chain or, on linkers, in order; H or OH if unused. Where a SMILES comes first, the peptide text is derived from it. Bridges are numbered along the chain shown (N, C = ends). [ ]: non-standard residue; d: D form. The star is where a group is joined. DOTA = O=C(O)CN1CCN(CC(=O)O)CCN(CC(=O)*)CCN(CC(=O)O)CC1; 1Nal = N[C@@H](Cc1cccc2ccccc12)C(=O)O; TBMB = c1c(C[*:1])cc(C[*:3])cc1C[*:2]; Tle = CC(C)(C)[C@H](N)C(=O)O",
  "data": [
    {"compound": "C[C@H](NC(=O)CN1CCN(CC(=O)O)CCN(CC(=O)O)CCN(CC(=O)O)CC1)C(=O)N[C@H]1CSCc2cc3cc(c2)CSC[C@H](NC(=O)[C@@H](C)NC(=O)[C@H](Cc2cccc4ccccc24)NC(=O)[C@H](CCC(=O)O)NC(=O)[C@H](CC(N)=O)NC(=O)[C@@H](C)NC1=O)C(=O)N[C@@H](CCC(=O)O)C(=O)N[C@@H](CC(=O)O)C(=O)N[C@@H](Cc1ccccc1)C(=O)N[C@@H](Cc1ccc(O)cc1)C(=O)N[C@@H](CC(=O)O)C(=O)N[C@@H](C(C)(C)C)C(=O)N[C@H](C(N)=O)CSC3", "note": "[I-23] ({DOTA}-AC[dA]NE[1Nal][dA]CEDFYD[Tle]C-NH2; linker 2-8-15 via TBMB)", "values": [
      {"measurement": "tissue uptake at 1 h", "setting": "[1]; 50 kBq per mouse", "result": "12 ± 2.37", "unit": "%ID/g"},
      {"measurement": "tissue uptake at 24 h", "setting": "[1]; 50 kBq per mouse, 24 h p.i.", "result": "1.54 ± 0.06", "unit": "%ID/g"},
      {"measurement": "tissue uptake at 1 h", "setting": "[1]", "result": 12.4, "unit": "%ID/g"},
      {"measurement": "blocking of tumor uptake at a dose of 500 pmoles", "setting": "HT1080 tumor", "result": "slightly blocked"},
      {"measurement": "blocking of tumor uptake using 5 nmoles", "setting": "HT1080 tumor", "result": "nearly completely blocked"},
      {"measurement": "tumor uptake compared to 17-69-07-N144", "setting": "HT1080 tumor", "result": "significantly higher tumor uptake"}
    ]}
  ]
}
